{"source": "patent US20190055314A1", "about": "(ADAGENE, published 2019)", "key": {"[1]": {"biological_target": "T1, full-length human CD137 on the cell surface (human, UniProt Q07011 18-255)", "T1 construct": "also called Human WT", "test": "flow cytometry, PMA/ionomycin-activated human T cells, antibody 100 nM"}, "[2]": {"biological_target": "T1, full-length human CD137 on the cell …", "test": "flow cytometry, HEK293F"}, "[3]": {"biological_target": "T2, full-length monkey CD137 on the cell surface (cynomolgus monkey, UniProt Q07011 24-179 (human entry))", "T2 chain": "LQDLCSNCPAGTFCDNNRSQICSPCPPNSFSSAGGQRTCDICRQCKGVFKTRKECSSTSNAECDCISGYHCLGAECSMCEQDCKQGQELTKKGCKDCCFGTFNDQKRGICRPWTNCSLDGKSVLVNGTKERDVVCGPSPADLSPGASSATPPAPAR", "test": "flow cytometry, HEK293F"}, "[4]": {"biological_target": "T3, Hu_GTF34AAA (human, UniProt Q07011 18-255)", "T3 construct": "On HEK293F; also called GFT34AAA", "T3 chain": "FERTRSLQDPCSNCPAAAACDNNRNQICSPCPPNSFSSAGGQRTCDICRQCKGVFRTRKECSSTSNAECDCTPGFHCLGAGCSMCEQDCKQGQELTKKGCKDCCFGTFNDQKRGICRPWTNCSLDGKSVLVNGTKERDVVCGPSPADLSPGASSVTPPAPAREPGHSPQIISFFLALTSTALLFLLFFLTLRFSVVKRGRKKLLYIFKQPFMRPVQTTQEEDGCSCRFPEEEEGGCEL", "test": "flow cytometry, HEK293F cells expressing CD137 or mutant [Cont.]"}, "[5]": {"biological_target": "T4, Hu_FH92AA (human, UniProt Q07011 18-255)", "T4 construct": "On HEK293F", "test": "flow cytometry, HEK293F cells expressing CD137 or mutant [Cont.]"}, "[6]": {"biological_target": "T5, Hu_FSS53AAA (human, UniProt Q07011 18-255)", "T5 construct": "On HEK293F", "T5 chain": "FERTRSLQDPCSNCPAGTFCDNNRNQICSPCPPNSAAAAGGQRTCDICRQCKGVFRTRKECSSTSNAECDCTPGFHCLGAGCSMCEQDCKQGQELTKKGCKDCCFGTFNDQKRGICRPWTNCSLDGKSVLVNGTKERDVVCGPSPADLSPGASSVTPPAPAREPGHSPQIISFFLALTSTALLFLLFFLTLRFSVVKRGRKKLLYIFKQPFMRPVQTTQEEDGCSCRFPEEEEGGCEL", "test": "flow cytometry, HEK293F cells expressing CD137 or mutant [Cont.]"}, "[7]": {"biological_target": "T1, full-length human CD137 on the cell …", "test": "flow cytometry, yeast display"}, "[8]": {"biological_target": "T6, full-length mouse CD137 on the cell surface (mouse, UniProt P20334 24-178)", "T6 sequence": "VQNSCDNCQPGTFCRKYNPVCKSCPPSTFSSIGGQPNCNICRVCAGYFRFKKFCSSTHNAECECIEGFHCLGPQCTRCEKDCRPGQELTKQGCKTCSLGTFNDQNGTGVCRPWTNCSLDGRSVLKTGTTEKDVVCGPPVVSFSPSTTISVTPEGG", "test": "flow cytometry, yeast display"}, "[9]": {"biological_target": "T7, Hu_CRD2 (human, UniProt Q07011 46-86, limits assumed)", "T7 construct": "also called human CD137 CRD2", "T7 chain": "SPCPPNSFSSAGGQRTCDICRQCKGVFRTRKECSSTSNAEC", "test": "flow cytometry, yeast display"}, "[10]": {"biological_target": "T8, CD137-hisFc fusion protein (Sino Biological Cat 10041-H03H) (human, UniProt Q07011 24-186)", "T8 construct": "Bought; also called recombinant human CD137 (fused with human Fc and His tag); not shown: His tag and human Fc", "test": "competition ELISA, human CD137-Fc-His coated, biotinylated CD137L as blocked ligand, neutravidin-HRP"}, "[11]": {"biological_target": "T2, full-length monkey CD137 on the cell …", "test": "flow cytometry, HEK293F cells expressing CD137 or mutant [Cont.]"}, "[12]": {"biological_target": "T9, human CD137-His6 (Sino Biological #10041-H08H) (human, UniProt Q07011 24-186)", "T9 construct": "Bought; also called human CD137 protein; not shown: His6 tag", "test": "SPR Biacore, IgG captured"}, "[13]": {"biological_target": "T10, mouse CD137 protein (Biacore) (mouse, UniProt P20334 24-178, limits assumed)", "T10 construct": "Construct used as SPR analyte not described", "T10 sequence": "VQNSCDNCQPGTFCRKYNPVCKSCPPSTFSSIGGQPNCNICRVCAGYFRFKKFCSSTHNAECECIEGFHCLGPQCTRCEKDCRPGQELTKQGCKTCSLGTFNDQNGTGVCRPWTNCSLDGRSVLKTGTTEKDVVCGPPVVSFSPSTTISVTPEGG", "test": "SPR Biacore, IgG captured"}, "[14]": {"biological_target": "T11, CD120a", "T11 chain": "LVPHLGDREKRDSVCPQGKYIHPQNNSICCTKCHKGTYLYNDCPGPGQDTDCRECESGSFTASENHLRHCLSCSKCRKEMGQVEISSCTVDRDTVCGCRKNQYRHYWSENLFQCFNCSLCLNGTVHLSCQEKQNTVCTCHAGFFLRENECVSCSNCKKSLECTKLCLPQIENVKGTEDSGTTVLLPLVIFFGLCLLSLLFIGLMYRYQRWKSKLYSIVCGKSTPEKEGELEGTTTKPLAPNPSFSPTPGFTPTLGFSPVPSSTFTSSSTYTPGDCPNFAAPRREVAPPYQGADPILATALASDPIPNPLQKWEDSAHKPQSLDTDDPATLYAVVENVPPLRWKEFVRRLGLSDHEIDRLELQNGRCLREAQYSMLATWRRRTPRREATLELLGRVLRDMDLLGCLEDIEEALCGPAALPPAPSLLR", "test": "flow cytometry, HEK293F cells expressing the receptor [Cont.]"}, "[15]": {"biological_target": "T12, CD95", "T12 chain": "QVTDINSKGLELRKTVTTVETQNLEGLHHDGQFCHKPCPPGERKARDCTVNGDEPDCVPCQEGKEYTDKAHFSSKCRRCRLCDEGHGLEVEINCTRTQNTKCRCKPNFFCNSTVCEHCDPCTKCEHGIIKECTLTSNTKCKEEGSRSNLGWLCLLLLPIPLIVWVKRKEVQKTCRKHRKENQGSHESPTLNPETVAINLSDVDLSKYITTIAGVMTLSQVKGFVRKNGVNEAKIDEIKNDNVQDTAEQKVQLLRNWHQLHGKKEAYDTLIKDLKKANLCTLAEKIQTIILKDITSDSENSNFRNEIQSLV", "test": "flow cytometry, HEK293F cells expressing the receptor [Cont.]"}}}
{"binder": "AG10059 (antibody, human IgG4 S228P, kappa, V domains shown) VH: EVQLVESGGGLVQPGGSLRLSCAASGYSITSGHYWAWIRQAPGKGLEWVSSISGYGSTTYYADSVKGRFTISRDNSKNTLYLQLNSLRAEDTAVYYCARGGSDAVLGDWFAYWGQGTLVTVSS VL: DIQLTQSPSSLSASVGDRVTITCRASQGIGSFLAWYQQKPGKAPKLLIYDASNLETGVPSRFSGSGSGTDFTLTISSLQPEDFATYYCQQGYYLWTFGQGTKVEIKR", "values": [{"measurement": "% of cells positive for antibody binding", "setting": "[1]", "result": 45.1, "unit": "%"}, {"measurement": "Kd", "setting": "[2]", "result": 5, "unit": "nM"}, {"measurement": "Kd", "setting": "[3]", "result": 2.6, "unit": "nM"}, {"measurement": "Mean", "setting": "[4]", "result": 893}, {"measurement": "binding result", "setting": "[4]", "result": "no binding (tested: 100 nM (as in Example 5))"}, {"measurement": "binding result", "setting": "[5]", "result": "no binding (tested: 100 nM (as in Example 5))"}, {"measurement": "Mean", "setting": "[6]", "result": 720}, {"measurement": "binding result", "setting": "[6]", "result": "no binding (tested: 100 nM (as in Example 5))"}, {"measurement": "% in upper right quadrant", "setting": "[7]", "result": 25.9, "unit": "%"}, {"measurement": "Mean", "setting": "[7]", "result": 58600}, {"measurement": "% in upper right quadrant", "setting": "[8]", "result": 0.44, "unit": "%"}, {"measurement": "Mean", "setting": "[8]", "result": 9890}, {"measurement": "% in upper right quadrant", "setting": "[9]", "result": 0.2, "unit": "%"}, {"measurement": "Mean", "setting": "[9]", "result": 6280}, {"measurement": "IC50 (read off the curve)", "setting": "[10]", "result": "~100", "unit": "nM"}, {"measurement": "% in upper right quadrant", "setting": "[11]", "result": 42.4, "unit": "%"}]}
{"binder": "AG10058 (antibody, human IgG4 S228P, kappa, V domains shown) VH: EVQLVESGGGLVQPGGSLRLSCAASGFSLSTSGVGVGWIRQAPGKGLEWLALIDWDDDKYYSPSLKSRLTISRDNSKNTLYLQLNSLRAEDTAVYYCARGGSDTVLGDWFAYWGQGTLVTVSS VL: DIQLTQSPSSLSASVGDRVTITCRASQSVSPYLAWYQQKPGKAPKLLIYDASSLESGVPSRFSGSGSGTDFTLTISSLQPEDFATYYCQQGYSLWTFGQGTKVEIKR", "values": [{"measurement": "Kd", "setting": "[12]", "result": 5.9, "unit": "nM"}, {"measurement": "Kd", "setting": "[13]", "result": 15.2, "unit": "nM"}, {"measurement": "% of cells positive for antibody binding", "setting": "[1]", "result": 52, "unit": "%"}, {"measurement": "Kd", "setting": "[2]", "result": 1.8, "unit": "nM"}, {"measurement": "Kd", "setting": "[3]", "result": 2, "unit": "nM"}, {"measurement": "Mean", "setting": "[4]", "result": 878}, {"measurement": "binding result", "setting": "[4]", "result": "no binding (tested: 100 nM (as in Example 5))"}, {"measurement": "binding result", "setting": "[5]", "result": "no binding (tested: 100 nM (as in Example 5))"}, {"measurement": "Mean", "setting": "[6]", "result": 778}, {"measurement": "binding result", "setting": "[6]", "result": "no binding (tested: 100 nM (as in Example 5))"}, {"measurement": "% in upper right quadrant", "setting": "[7]", "result": 30.7, "unit": "%"}, {"measurement": "Mean", "setting": "[7]", "result": 64700}, {"measurement": "% in upper right quadrant", "setting": "[8]", "result": 41.1, "unit": "%"}, {"measurement": "Mean", "setting": "[8]", "result": 12600}, {"measurement": "% in upper right quadrant", "setting": "[9]", "result": 0.24, "unit": "%"}, {"measurement": "Mean", "setting": "[9]", "result": 13200}, {"measurement": "binding result", "setting": "[14]", "result": "no binding (tested: 100 nM (text paragraph 226))"}, {"measurement": "binding result", "setting": "[15]", "result": "no binding (tested: 100 nM (text paragraph 226))"}, {"measurement": "IC50 (read off the curve)", "setting": "[10]", "result": "~40", "unit": "nM"}]}
